The text below walks through data of patent publication US20190352409A1 (AUTOLUS, published 2019).

First the molecules themselves.
T1: Transmembrane activator and calcium modulator and cyclophilin ligand (CAML) interactor (TACI), on cells (human, UniProt O14836 1-293)
T1 chain: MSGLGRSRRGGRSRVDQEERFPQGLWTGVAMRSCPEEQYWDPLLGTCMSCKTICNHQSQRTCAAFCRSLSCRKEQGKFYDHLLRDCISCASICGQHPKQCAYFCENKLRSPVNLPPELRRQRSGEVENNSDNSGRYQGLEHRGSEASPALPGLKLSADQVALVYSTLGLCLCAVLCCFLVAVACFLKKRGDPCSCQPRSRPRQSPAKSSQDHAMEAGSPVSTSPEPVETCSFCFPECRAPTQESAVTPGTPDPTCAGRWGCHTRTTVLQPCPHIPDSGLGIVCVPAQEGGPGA

T2: Transmembrane activator and calcium modulator and cyclophilin ligand (CAML) interactor (TACI), on cells (human, UniProt O14836 1-293)
T2 construct: whole, on cells; also called TNFRSF13B; SupT1 TACI cells
T2 sequence (looked up): T1 chain

B1: 2G2 anti-TACI monoclonal antibody (mouse hybridoma) (antibody, V domains shown)
VH: QVTLKESGPGMLQPSQTLSLTCSFSGFSLSTFGMGVGWIRQPSGKGLEWLAHIWWDDAQYSNPALRSRLTISKDTSKNQVFLKIANVDTADTATYYCSRIHSYYSYDEGFAYWGQGTLVTVSS
VL: DIVMTQSQKFMSTTVGDRVSITCKASQNVGTAVAWYQQKPGQSPKLLIYSASNRYTGVPDRFTGSGSGTDFTLTISNMQSEDLADYFCQQYSSYRTFGGGTKLEIKR
notes: Tested as hybridoma supernatant from BalBC mice
B2: 4B11 anti-TACI monoclonal antibody (mouse hybridoma) (antibody, V domains shown)
VH: EVQLQQSVAELVRPGASVKLSCTASGFNIKNTYIHWVKQRPEQGLEWIGKIDPANGNSEYAPKFQGKATITADTSSNTAYLQLSSLTSEDTTIYYCTSGYGAYWGQGTTLTVSS
VL: DIVLSQSPSSLAVSIGEKVTLSCKSSQSLLYSSNQKNYLAWFQQKPGQSLKLLIYWASTREFGVPDRFTGSGSGTDFTLTISSVKTEDLAVYYCQQYYTWTFGGGTKLEIK
notes: as for B1
B3: 1G6 anti-TACI monoclonal antibody (mouse hybridoma) (antibody, V domains shown)
VH: QVQLKQSGPGLVAPSQSLSITCTVSGFSLTSYGVDWVRQSPGKGLEWLGIIWGGGRTNYNSAFKSRLSISKDNSKSQVFLKMNSLQTDDTAMYYCASGDRAADYWGQGTSVTVSS
VL: DIVMTQSQKFMSTTVGDRVTITCKASQNVGTAVAWYQQKPGQSPKLLIYSASNRYTGVPVRFTGSGSGTDFTLTINNMQSEDLADYFCQQYSSYPLTFGAGTKLELK
notes: as for B1
B4: 2H6 anti-TACI monoclonal antibody (mouse hybridoma) (antibody, V domains shown)
VH: EVQLQQSGPELVKPGASVRMSCKASGYTFTNYVMHWVKQKPGQGLEWIGYINPSNDDTKYTEKFKGKATLTSDKSSSTAYMELSSLTSEDSAVYYCARGTHGDYYALDYWGQGTSVTVSS
VL: DIVLTQSPASLAVSLGQSVTISCRASESVEYYGTSLMQWYQQKPGQAPKLLIYGASNVESGVPARFSGSGSGTDFSLNIHPVEEDDIAMYFCQQSRKVPWTFGGGTKLEI

One assay concerns the target T1, Transmembrane activator and calcium …. Description: Biacore SPR.
As usually defined, the Kd is the equilibrium constant for the complex coming apart. Regarding B1, the Kd worked out at 924 pM.
The same measure, in the same setting: the result for B2 reads 379 pM; that for B3, 210 pM.
Still for that read-out and setting: the same measure for B4: 51 pM.

Another assay concerns the target T2, Transmembrane activator and calcium …. Description: flow cytometry on TACI positive SupT1 cells (FIG. 6b). The text has this:
b) Confirmatory analysis of TACI binding by flow cytometry. Hybridoma lines were screened on TACI positive and BCMA positive SupT1 cells. The four hybridomas with the highest reactivity to SupT1 TACI cells were chosen for subcloning and characterisation
Five mice with TACI positive sera were selected for a final immunization boost before the spleens were harvested for B cell isolation and hybridoma production. Hybridoma fusions of 10×96-well plates with lymphocytes from the selected mice were performed. Hybridoma supernatants were screened for reactive anti-TACI antibodies by ELISA screening against recombinant human TACI purified protein (Peprotech, 310-17), representative data is shown in FIG. 6a. ELISA positive hybridoma supernatants were tested by flow cytometry, on SupT1 cells engineered to overexpress TACI. As a control BCMA expressing SupT1 cells were used, FIG. 6b. Candidate hybridomas were expanded.
For orientation: Flow cytometry measures light scatter and fluorescence of single cells or particles in a stream.
Regarding B1, the binding result is given as “binds”.
The same measure, in the same setting: the same measure for B2: “binds”; for B3: “binds”.
